Measurements from article PMC2581521 (2008).

Biological target: T1, Chordin (Xenopus laevis, UniProt Q91713)
T1 chain: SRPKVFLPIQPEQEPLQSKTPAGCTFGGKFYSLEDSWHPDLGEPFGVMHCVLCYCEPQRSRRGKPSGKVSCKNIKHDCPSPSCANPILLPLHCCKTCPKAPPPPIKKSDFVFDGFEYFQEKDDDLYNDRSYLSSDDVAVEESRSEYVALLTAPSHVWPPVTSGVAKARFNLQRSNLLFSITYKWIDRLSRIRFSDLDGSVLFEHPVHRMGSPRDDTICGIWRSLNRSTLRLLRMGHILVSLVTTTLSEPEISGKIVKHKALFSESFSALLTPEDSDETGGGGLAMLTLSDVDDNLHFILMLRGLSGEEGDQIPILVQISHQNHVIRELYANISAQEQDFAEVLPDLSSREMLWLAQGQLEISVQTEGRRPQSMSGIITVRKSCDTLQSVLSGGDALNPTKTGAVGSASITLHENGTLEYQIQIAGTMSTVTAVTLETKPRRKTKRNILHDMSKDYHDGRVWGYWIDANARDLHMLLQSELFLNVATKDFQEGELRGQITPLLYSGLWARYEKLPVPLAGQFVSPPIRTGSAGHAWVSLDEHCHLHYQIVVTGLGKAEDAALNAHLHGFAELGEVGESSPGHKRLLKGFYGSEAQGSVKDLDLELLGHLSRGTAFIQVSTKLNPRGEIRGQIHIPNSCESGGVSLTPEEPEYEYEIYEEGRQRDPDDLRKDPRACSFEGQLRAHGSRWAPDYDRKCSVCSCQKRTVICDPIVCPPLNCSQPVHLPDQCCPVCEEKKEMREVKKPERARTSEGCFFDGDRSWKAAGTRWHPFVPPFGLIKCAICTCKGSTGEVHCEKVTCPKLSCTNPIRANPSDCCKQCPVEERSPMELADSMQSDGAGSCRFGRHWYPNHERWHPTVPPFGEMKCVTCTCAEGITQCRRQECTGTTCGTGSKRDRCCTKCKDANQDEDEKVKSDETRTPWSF
Test: SPR

Kd: 1.37 nM
B1: Crossveinless-2 (protein)
chain: not shown
